B1: GpH7-B3 variant S337_09D/GpL16-k0 (antibody, human IgG1, kappa)
heavy: not shown
light: DIVMTQSPLSLPVTPGEPASISCQASESLVHSNRNTYLHWYLQKPGQSPQLLIYKVSNRFSGVPDRFSGSGSGTDFTLKISRVEAEDVGVYYCSQNTHVPPTFGQGTKVEIERTVAAPSVFIFPPSDEQLKSGTASVVCLLNNFYPREAKVQWKVDNALQSGNSQESVTEQDSKDSTYSLSSTLTLSKADYEKHKVYACEVTHQGLSSPVTKSFNRGEC
notes: also called Ho Ab S337_09D
B2: GpH7-B3 variant V266_08L/GpL16-k0 (antibody, human IgG1, kappa)
heavy: not shown
light: B1 light
notes: also called Ho Ab V266_08L
B3: GpH7-B3 variant T335_15Y/GpL16-k0 (antibody, human IgG1, kappa)
heavy: not shown
light: B1 light
notes: also called Ho Ab T335_15Y
B4: GpH7-B3 variant T335_19Q/GpL16-k0 (antibody, human IgG1, kappa)
heavy: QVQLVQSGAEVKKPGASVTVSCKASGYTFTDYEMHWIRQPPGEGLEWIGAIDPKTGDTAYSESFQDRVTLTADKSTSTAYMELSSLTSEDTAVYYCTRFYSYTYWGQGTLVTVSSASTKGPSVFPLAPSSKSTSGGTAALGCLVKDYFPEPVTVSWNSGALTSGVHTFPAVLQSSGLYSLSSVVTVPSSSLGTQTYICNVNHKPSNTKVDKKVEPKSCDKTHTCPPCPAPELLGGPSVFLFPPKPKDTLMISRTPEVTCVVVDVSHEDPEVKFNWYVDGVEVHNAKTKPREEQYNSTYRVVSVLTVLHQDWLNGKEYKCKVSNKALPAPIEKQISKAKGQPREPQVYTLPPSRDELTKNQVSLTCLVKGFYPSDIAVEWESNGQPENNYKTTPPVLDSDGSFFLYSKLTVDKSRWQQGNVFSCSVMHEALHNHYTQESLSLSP
light: B1 light
notes: also called Ho Ab T335_19Q
B5: GpH7-B3 variant S337_20W/GpL16-k0 (antibody, human IgG1, kappa)
heavy: not shown
light: B1 light
notes: also called Ho Ab S337_20W
B6: GpH7-B3 variant P271_01G/GpL16-k0 (antibody, human IgG1, kappa)
heavy: not shown
light: B1 light
notes: also called Ho Ab P271_01G
B7: GpH7-B3 variant S324_02A/GpL16-k0 (antibody, human IgG1, kappa)
heavy: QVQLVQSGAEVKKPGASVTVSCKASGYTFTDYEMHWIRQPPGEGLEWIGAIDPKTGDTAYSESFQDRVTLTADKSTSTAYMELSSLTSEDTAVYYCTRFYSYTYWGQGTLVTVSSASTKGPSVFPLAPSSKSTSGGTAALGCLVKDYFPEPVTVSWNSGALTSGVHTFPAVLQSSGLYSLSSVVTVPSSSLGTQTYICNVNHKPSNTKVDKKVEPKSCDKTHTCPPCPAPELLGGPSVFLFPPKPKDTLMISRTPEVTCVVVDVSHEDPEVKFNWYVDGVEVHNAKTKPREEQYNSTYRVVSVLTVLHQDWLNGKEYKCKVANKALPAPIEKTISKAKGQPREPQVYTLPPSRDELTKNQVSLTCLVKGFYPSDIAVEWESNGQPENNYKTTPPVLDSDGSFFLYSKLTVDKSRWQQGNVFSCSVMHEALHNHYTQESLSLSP
light: B1 light
notes: also called Ho Ab S324_02A
B8: GpH7-B3 variant S337_14T/GpL16-k0 (antibody, human IgG1, kappa)
heavy: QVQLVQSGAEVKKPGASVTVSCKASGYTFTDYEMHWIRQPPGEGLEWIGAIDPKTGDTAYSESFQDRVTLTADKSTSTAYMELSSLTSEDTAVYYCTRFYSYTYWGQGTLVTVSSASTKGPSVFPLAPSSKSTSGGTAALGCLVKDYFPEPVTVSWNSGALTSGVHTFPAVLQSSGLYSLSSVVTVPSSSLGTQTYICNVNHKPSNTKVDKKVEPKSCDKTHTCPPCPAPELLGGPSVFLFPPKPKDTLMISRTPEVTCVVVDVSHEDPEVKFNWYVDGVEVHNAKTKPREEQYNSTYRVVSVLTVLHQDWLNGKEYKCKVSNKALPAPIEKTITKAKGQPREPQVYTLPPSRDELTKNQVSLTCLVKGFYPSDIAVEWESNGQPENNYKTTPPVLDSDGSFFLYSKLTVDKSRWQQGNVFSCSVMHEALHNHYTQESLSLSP
light: B1 light
notes: also called Ho Ab S337_14T
B9: GpH7-B3 variant L234_04F/GpL16-k0 (antibody, human IgG1, kappa)
heavy: not shown
light: B1 light
notes: also called Ho Ab L234_04F
B10: GpH7-B3 variant S337_10E/GpL16-k0 (antibody, human IgG1, kappa)
heavy: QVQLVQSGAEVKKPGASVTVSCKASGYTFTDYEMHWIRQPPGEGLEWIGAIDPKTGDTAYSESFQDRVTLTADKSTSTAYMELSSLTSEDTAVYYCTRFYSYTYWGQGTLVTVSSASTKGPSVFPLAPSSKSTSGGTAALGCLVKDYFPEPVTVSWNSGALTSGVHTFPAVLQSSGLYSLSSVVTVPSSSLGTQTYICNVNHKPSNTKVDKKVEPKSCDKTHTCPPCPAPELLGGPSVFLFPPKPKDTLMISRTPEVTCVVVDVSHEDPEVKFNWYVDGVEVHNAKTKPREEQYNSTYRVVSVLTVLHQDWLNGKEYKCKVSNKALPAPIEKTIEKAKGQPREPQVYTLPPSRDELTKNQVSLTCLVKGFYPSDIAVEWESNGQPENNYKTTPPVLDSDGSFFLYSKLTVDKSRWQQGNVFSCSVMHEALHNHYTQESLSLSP
light: B1 light
notes: also called Ho Ab S337_10E
B11: GpH7-B3 variant T335_10E/GpL16-k0 (antibody, human IgG1, kappa)
heavy: not shown
light: B1 light
notes: also called Ho Ab T335_10E
B12: GpH7-B3 variant L234_20W/GpL16-k0 (antibody, human IgG1, kappa)
heavy: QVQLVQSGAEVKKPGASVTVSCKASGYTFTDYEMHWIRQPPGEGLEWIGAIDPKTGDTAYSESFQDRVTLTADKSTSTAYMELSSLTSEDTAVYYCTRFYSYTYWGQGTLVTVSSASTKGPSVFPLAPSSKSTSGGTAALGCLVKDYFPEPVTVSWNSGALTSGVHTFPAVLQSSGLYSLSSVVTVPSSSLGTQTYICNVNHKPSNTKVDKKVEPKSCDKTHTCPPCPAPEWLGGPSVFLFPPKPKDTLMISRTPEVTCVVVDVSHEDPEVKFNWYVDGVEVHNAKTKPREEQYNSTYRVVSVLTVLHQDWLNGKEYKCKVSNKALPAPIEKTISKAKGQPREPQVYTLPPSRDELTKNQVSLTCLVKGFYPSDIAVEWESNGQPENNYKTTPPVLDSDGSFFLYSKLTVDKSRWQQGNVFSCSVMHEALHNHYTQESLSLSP
light: B1 light
notes: also called Ho Ab L234_20W
B13: GpH7-B3 variant S337_15Y/GpL16-k0 (antibody, human IgG1, kappa)
heavy: not shown
light: B1 light
notes: also called Ho Ab S337_15Y
B14: GpH7-B3 variant P238_10E/GpL16-k0 (antibody, human IgG1, kappa)
heavy: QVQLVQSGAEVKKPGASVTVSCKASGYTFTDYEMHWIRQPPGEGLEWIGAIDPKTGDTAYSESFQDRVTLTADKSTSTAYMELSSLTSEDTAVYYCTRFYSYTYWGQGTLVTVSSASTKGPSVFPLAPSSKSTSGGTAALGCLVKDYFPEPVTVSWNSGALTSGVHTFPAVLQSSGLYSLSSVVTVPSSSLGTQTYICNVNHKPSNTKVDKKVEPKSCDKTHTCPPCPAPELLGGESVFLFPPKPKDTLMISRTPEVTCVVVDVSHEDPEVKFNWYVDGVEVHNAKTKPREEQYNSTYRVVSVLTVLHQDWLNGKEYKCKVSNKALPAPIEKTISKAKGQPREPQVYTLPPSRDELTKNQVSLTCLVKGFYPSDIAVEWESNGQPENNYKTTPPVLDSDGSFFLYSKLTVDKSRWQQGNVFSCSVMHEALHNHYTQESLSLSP
light: B1 light
notes: also called Ho Ab P238_10E
B15: GpH7-B3 variant Q295_14T/GpL16-k0 (antibody, human IgG1, kappa)
heavy: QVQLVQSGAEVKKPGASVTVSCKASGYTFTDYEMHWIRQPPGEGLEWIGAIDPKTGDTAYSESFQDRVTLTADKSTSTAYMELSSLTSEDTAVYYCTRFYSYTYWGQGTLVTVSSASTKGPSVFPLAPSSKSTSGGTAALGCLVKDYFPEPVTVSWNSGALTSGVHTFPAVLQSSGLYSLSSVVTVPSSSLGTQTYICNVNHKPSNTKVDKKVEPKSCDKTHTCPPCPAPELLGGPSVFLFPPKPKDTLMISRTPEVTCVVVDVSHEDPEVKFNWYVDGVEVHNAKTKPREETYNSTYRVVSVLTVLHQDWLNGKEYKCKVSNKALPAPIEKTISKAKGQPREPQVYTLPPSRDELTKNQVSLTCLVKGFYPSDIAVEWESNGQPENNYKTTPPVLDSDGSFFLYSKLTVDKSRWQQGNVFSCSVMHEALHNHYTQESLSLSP
light: B1 light
notes: also called Ho Ab Q295_14T
B16: GpH7-B3 variant T335_16H/GpL16-k0 (antibody, human IgG1, kappa)
heavy: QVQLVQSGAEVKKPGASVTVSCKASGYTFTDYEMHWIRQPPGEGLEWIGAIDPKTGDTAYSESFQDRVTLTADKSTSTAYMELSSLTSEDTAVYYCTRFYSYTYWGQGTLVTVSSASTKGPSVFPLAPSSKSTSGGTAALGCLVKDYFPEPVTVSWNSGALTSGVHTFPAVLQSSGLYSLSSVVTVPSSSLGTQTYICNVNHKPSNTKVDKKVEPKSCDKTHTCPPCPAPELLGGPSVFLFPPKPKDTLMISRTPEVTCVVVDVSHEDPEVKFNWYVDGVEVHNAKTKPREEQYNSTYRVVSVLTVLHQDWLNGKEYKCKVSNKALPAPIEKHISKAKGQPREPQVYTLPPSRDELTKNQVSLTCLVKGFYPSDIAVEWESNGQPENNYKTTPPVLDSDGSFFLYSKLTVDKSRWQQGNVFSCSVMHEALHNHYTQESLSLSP
light: B1 light
notes: also called Ho Ab T335_16H
B17: GpH7-B3 variant T335_13S/GpL16-k0 (antibody, human IgG1, kappa)
heavy: not shown
light: B1 light
notes: also called Ho Ab T335_13S
B18: GpH7-B3 variant S324_16H/GpL16-k0 (antibody, human IgG1, kappa)
heavy: not shown
light: B1 light
notes: also called Ho Ab S324_16H
B19: GpH7-B3 variant S267_09D/GpL16-k0 (antibody, human IgG1, kappa)
heavy: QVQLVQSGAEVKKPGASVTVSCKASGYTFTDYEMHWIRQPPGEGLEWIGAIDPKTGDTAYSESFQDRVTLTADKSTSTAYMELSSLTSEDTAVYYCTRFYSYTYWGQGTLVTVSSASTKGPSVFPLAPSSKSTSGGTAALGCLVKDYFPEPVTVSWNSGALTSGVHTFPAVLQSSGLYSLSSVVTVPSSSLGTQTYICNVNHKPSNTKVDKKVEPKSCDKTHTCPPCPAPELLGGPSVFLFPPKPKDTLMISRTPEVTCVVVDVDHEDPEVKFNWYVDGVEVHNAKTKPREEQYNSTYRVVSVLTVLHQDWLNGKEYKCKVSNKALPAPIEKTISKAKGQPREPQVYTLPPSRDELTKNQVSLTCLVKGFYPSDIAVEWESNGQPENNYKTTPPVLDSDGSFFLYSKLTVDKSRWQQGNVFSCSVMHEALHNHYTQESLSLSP
light: B1 light
notes: also called Ho Ab S267_09D
B20: GpH7-B3 variant P238_09D/GpL16-k0 (antibody, human IgG1, kappa)
heavy: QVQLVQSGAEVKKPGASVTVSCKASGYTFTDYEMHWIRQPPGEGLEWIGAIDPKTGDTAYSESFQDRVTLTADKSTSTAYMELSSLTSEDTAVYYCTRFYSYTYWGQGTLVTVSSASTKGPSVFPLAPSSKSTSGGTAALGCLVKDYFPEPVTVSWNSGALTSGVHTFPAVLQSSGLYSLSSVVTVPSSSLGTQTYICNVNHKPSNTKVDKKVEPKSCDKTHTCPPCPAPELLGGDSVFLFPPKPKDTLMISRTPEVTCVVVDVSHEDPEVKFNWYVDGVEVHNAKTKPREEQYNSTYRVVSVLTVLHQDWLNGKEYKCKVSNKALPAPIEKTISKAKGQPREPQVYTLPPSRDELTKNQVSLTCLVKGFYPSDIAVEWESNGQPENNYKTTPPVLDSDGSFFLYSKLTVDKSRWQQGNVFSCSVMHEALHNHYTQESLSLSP
light: B1 light
notes: also called Ho Ab P238_09D
B21: GpH7-B3 variant S337_18N/GpL16-k0 (antibody, human IgG1, kappa)
heavy: not shown
light: B1 light
notes: also called Ho Ab S337_18N
B22: GpH7-B3 variant T335_07I/GpL16-k0 (antibody, human IgG1, kappa)
heavy: not shown
light: B1 light
notes: also called Ho Ab T335_07I
B23: GpH7-B17/GpL16-k0 (antibody, human IgG1, kappa)
heavy: not shown
light: B1 light
notes: also called Ho Ab L234_09D; GpH7-B3 variant L234_09D/GpL16-k0

Target: T1, FcγRIIIa extracellular domain with C-terminal His tag (human, UniProt P08637 17-208)
T1 construct: extracellular domain; also called FcgRIIIa; 3a; not shown: His tag at the C terminus
T1 sequence (P08637 17-208): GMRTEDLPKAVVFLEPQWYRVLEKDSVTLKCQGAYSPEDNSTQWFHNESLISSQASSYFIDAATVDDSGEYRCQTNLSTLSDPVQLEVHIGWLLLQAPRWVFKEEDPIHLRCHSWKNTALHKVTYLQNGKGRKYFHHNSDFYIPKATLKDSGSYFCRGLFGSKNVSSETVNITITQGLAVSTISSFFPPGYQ
Assay: SPR relative binding; GpH7-B3/GpL16-k0 = 100
Procedure: Analysis of interaction between objective antibody and the FcγR was carried out using Biacore T100 (GE Healthcare). HBS-EP+ (GE Healthcare) was used as the running buffer, and the measurement temperature was set to 25° C. Chips produced by immobilizing the antigen peptide by the amine coupling method to a Series S Sencor Chip CM5 (GE Healthcare), or alternatively, chips produced by allowing preliminarily biotinylated antigen peptides to interact with and immobilize onto a Series S Sensor Chip SA (certified) (GE Healthcare) were used. Antibodies of interest were captured onto an antigen peptide-immobilized chip, and allowed to interact to each FcγR diluted with running buffer. To regenerate and repeatedly use the chip, the antibodies captured on the chip were washed off by reacting 10 mM glycine-HCl, pH 1.5.
The FcγR-binding activity of each antibody was assessed primarily using as an indicator the FcγR-binding activity and dissociation constant for FcγR.

Ho/Con_3a	Binder
106 % of control	B1
90.5 % of control	B2
91.5 % of control	B3
97.7 % of control	B4
87.8 % of control	B5
88 % of control	B6
99.8 % of control	B7
97.2 % of control	B8
49.9 % of control	B9
100 % of control	B10
102 % of control	B11
37.1 % of control	B12
99 % of control	B13
0.8 % of control	B14
108 % of control	B15
99.5 % of control	B16
97.6 % of control	B17
103 % of control	B18
160 % of control	B19
-0.1 % of control	B20
102 % of control	B21
107 % of control	B22
52.8 % of control	B23
